In experiment [1] the target is T1, β-galactosidase from Escherichia coli (Escherichia coli, UniProt P00722 2-1024 = β-galactosidase).
T1 construct: Unlabeled in the ELISA; in solution in all assays; also called b-galactosidase
Description: direct ELISA: phage immobilized in wells, unlabeled β-galactosidase in solution at varied concentration [bottom panel]. An excerpt: (§1) Each binding curve is labeled with the altered amino acid sequence of the foreign peptide carried by the phage being tested (V_o=vector control). ELISA signal (mOD/min) is shown as a function of ligand concentration (micrograms/ml for top two panels; nanomolar for bottom panel).
(§2) *Escherichia coli*). Each protein was absorbed to the surface of a 35-mm polystyrene Petri dish and exposed to the phage library. Unbound phage were washed away, and bound phage was eluted with acid buffer and amplified by infecting fresh bacterial host cells. […] The selected phage were further characterized by enzyme linked immuno sorbent assay (ELISA) in which the phage were immobilized on the plastic surface of ELISA wells and reacted with the ligands in solution phase. Neutravidin and streptavidin were labeled with alkaline phosphatase, while β-galactosidase was unlabeled. […] Inhibition ELISAs verified that non-immobilized peptide-bearing phage compete with immobilized phage for binding to their respective ligands.

In another experiment the target is T2, neutravidin (chicken (stated for avidin), UniProt P02701 25-152).
T2 construct: Labeled with alkaline phosphatase in the ELISA; also called alkaline phosphatase-labeled neutravidin; avidin (from chicken egg white)
Description: direct ELISA: phage immobilized in wells, alkaline phosphatase-labeled neutravidin in solution at varied concentration [top panel].
Source text: as §1, §2

In experiment [2] the target is β-galactosidase from Escherichia coli (Escherichia coli) [β-galactosidase: P00722]. Description: direct ELISA: phage immobilized in wells, unlabeled β-galactosidase in solution at varied concentration [bottom panel].
Sequence of β-galactosidase from Escherichia coli (Escherichia coli) [β-galactosidase: P00722] (P00722 2-1024 limits assumed): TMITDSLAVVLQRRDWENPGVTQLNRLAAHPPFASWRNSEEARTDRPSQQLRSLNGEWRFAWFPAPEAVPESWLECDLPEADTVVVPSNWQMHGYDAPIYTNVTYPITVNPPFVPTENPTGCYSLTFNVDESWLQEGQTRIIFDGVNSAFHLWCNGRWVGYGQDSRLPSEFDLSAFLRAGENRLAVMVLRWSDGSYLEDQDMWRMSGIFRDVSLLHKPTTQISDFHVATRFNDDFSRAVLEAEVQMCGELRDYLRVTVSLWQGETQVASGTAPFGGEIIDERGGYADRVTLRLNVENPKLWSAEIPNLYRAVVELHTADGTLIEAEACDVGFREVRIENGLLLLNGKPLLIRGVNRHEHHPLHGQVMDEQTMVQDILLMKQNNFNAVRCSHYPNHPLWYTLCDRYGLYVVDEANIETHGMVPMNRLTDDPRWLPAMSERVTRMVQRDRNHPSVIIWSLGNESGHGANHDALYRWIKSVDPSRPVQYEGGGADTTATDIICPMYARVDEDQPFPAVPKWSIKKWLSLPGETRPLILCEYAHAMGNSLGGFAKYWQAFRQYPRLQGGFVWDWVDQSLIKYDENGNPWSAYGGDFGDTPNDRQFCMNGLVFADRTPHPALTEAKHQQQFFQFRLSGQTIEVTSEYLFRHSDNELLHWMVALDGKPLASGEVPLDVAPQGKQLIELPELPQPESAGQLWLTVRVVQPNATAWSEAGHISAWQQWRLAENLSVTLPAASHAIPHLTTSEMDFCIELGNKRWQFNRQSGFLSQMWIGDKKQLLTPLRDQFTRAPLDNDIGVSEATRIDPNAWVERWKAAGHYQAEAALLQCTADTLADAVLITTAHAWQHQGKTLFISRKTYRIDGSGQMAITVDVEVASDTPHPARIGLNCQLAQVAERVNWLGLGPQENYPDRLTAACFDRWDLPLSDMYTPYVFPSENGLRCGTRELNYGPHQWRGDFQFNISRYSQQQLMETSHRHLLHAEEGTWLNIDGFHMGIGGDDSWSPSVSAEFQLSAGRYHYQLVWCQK

T1 sequence (P00722 2-1024 limits assumed): as above
T2 sequence (P02701 25-152 limits assumed): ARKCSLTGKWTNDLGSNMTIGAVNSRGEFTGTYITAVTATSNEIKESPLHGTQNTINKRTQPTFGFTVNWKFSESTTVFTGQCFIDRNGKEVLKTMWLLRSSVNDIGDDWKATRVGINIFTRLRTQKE

B1: EKTLAYNQ (other)
major coat protein pVIII carrying the foreign peptide: EKTLAYNQ
notes: landscape phage immobilized in ELISA wells
Consider B1, for which the “EC50 (read off the curve)” value in experiment [1] is about 40 nM.

B2: EKTLAYSQ (other)
major coat protein pVIII carrying the foreign peptide: EKTLAYSQ
notes: as for B1
For the molecule B2, the “EC50 (read off the curve)” value in experiment [1] is about 70 nM.

B3: VPEYKGAS (other)
major coat protein pVIII carrying the foreign peptide: VPEYKGAS
notes: landscape phage immobilized in ELISA wells; belongs to group m4
Consider B3, for which the “EC50 (read off the curve)” value with neutravidin is about 3 micrograms/ml.

B4: DTFAKSMQ (other)
major coat protein pVIII carrying the foreign peptide: DTFAKSMQ
notes: as for B1
B4: the “EC50 (read off the curve)” value in experiment [1] is about 60 nM.

B5: VPEYTGPS (other)
major coat protein pVIII carrying the foreign peptide: VPEYTGPS
notes: as for B3
For B5, the “EC50 (read off the curve)” value with neutravidin was about 3 micrograms/ml.

As for VTFAAANT, the EC50 (read off the curve) in experiment [2] worked out at 100 nM.
